Measurements from publication PMC7505474 (2020).

Target: Recombinant TLR4 protein (R&D Systems 478-TR-050) (UniProt O00206 24-631)
Assay: SPR

Sequence of Recombinant TLR4 protein (R&D Systems 478-TR-050) (O00206 24-631): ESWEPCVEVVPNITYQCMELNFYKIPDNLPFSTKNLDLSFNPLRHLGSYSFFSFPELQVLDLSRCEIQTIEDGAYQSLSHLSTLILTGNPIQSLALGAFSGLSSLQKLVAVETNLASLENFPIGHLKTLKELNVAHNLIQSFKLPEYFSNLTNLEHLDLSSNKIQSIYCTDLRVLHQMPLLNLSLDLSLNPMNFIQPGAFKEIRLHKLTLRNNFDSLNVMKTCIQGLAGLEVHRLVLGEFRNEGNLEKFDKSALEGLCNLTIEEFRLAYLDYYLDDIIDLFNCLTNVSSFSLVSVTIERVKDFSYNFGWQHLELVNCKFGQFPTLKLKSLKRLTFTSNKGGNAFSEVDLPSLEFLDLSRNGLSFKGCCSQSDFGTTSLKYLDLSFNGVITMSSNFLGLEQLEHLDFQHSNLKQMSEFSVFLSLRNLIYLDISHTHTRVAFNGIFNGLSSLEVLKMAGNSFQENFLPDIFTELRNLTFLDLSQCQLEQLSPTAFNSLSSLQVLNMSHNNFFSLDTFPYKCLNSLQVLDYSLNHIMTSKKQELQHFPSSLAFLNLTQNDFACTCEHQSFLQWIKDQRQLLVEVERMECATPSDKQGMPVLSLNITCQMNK

B1: human recombinant IFI16 protein (natural protein)
chain: MGKKYKNIVLLKGLEVINDYHFRMVKSLLSNDLKLNLKMREEYDKIQIADLMEEKFRGDAGLGKLIKIFEDIPTLEDLAETLKKEKLKVKGPALSRKRKKEVDATSPAPSTSSTVKTEGAEATPGAQKRKKSTKEKAGPKGSKVSEEQTQPPSPAGAGMSTAMGRSPSPKTSLSAPPNSSSTENPKTVAKCQVTPRRNVLQKRPVIVKVLSTTKPFEYETPEMEKKIMFHATVATQTQFFHVKVLNTSLKEKFNGKKIIIISDYLEYDSLLEVNEESTVSEAGPNQTFEVPNKIINRAKETLKIDILHKQASGNIVYGVFMLHKKTVNQKTTIYEIQDDRGKMDVVGTGQCHNIPCEEGDKLQLFCFRLRKKNQMSKLISEMHSFIQIKKKTNPRNNDPKSMKLPQEQRQLPYPSEASTTFPESHLRTPQMPPTTPSSSFFTKKSEDTISKMNDFMRMQILKEGSHFPGPFMTSIGPAESHPHTPQMPPSTPSSSFLTTLKPRLKTEPEEVSIEDSAQSDLKEVMVLNATESFVYEPKEQKKMFHATVATENEVFRVKVFNIDLKEKFTPKKIIAIANYVCRNGFLEVYPFTLVADVNADRNMEIPKGLIRSASVTPKINQLCSQTKGSFVNGVFEVHKKNVRGEFTYYEIQDNTGKMEVVVHGRLTTINCEEGDKLKLTCFELAPKSGNTGELRSVIHSHIKVIKTRKNKKDILNPDSSMETSPDFFF
  koff: 0.00576 s⁻¹
